Measured values: patent publication US11072592B2, “Small molecules that enable cartilage rejuvenation” (The Regents of the University of California, priority 2015, dated 2021)

Assays:
pSTAT3 and MYC [1] = assay: Western blot of pSTAT3 and MYC in adult pig articular chondrocytes; type: cell-based; conditions: adult pig articular chondrocytes; for ability of both LIF and RCGD 423 to induce increases in pSTAT3 and MYC: inhibitor plus LIF or RCGD 423; for levels of MYC / levels of pSTAT3: treated vs untreated, relative to histone H3
Description: Only early passages of chondrocytes (passage 0-2) were used for experimentation to avoid de-differentiation and loss of cartilage phenotype (Wu et al., 2014). Cartilage explants were made using 1, 2 or 8 mm biopsy punch and wet weight of each explant determined prior to experimentation. For cell isolation cartilage tissue was digested as described previously (Wu et al., 2015). Postnatal paraffin embedded joint and growth plate specimens were kindly donated by Dr Marcel Karperien from the University of Twente (Netherlands) and Dr Nick Bernthal from University of California Los Angeles. All donated material was anonymous and carried no personal identifiers. Cell culture reagents were purchased from Life Technologies, Inc. (Grand Island, N.Y.). Growth factors LIF, OSM, IL-6, TNF-α, IL-1β were purchased from Life Technologies, Inc (Grand Island, N.Y.). STATTIC, 10058-F4, SCl44 hydrochloride, and CP-690550 were purchased from Sigma Aldrich (St. Louis, Mo.). RCGD 423 (N-(4-Bromophenyl)-4-phenyl-1,3-thiazol-2-amine) was synthesized and provided by MolPort (Riga, Latvia). Fetal, adult and pig chondrocytes were cultured in DMEM F12 medium containing 10% (vol/vol) fetal bovine serum and 1% Penicillin-Streptomycin (vol/vol) at 37° C. in a humidified atmosphere of 95% aid and 5% CO2. Media was replenished with DMEM F12 medium containing 1% (vol/vol) fetal bovine serum and 1% Penicillin-Streptomycin (vol/vol) once treatments were added. For 3-dimensional (3D) cell cultures adult human articular chondrocytes were incubated with or without RCGD 423 using 10% solution of Mebiol® hydrogel from Cosmo Bio (Carlsbad, Calif.) in X-vivo 15 serum free medium from Lonza (Walkersville, Md.) as described previously (Wu et al., 2014).
(§1) Treated and non-treated ells were lysed in RIPA Lysis and Extraction Buffer (Pierce, Rockford, Ill.) containing protease inhibitors (Pierce) followed by sonication with a 15-second pulse at a power output of 2 using the VirSonic 100 (SP Industries Company, Warminster, Pa.). Protein concentrations were determined by BCA protein assay (Pierce). Proteins were resolved with SDS-PAGE utilizing 4-15% Mini-PROTEAN TGX Precast Gels and transferred to Trans-Blot Turbo Transfer Packs with a 0.2-μm pore-size nitrocellulose membrane. The SDS-PAGE running buffer, 4-15% Mini-PROTEAN TGX Precast Gels, Trans-Blot Turbo Transfer Packs with a 0.2-μm pore-size nitrocellulose membrane were purchased from Biorad (Hercules, Calif.). Nitrocellulose membranes were blocked in 5% nonfat milk in 0.05% (v/v) Tween 20 (PBST) (Corning, Manassas, Va.). Membranes were then incubated with primary antibodies phospho-STAT3 (#9131), MYC (#5605), NF-κB p65 (#D14E12), pAKT (#9272) Histone 3 (#9715) from Cell Signaling, (Danvers, Mass.); MEK1/2 (ab70613) and p38 (ab795) from Abcam (Cambridge, Mass.) overnight. After washing in PBS containing 0.05% (v/v) Tween 20 (PBST), membranes were incubated with Goat anti-Rabbit IgG (H+L) Secondary Antibody (Thermo Scientific Rockford, Ill.). After washing, membranes were developed with the Clarity Western ECL Blotting Substrate (Hercules, Calif.).

cartilage explants = assay: Cartilage explant culture: tissue expansion, COL2 and GAG content; type: cell-based, pig; conditions: cartilage explants/plugs in culture
Description: The same stimulatory effect was achieved after treatment of explants with CRMs identified in our small molecule screen. […] This can test if activation of p-STAT3 and c-MYC by selected small molecules CRM-398 and -423 can result in in situ expansion of articular cartilage tissue.
Mature articular cartilage is comprised of chondrocytes contained within lacunae surrounded by dense extracellular matrix. In order for a regenerative response to occur, proliferation, survival and migration must all proceed in concert. […] We designed two sets of experiments to assess the ability of RCGD 423 to operate in this capacity. First, RCGD 423 or cytokines implicated in the growth and differentiation of articular cartilage were incubated with small plugs of cartilage tissue; after 5 weeks, the amount of COL2 and glycosaminoglycans (GAGs) were determined.
Cartilage explants were washed with PBS and then directly digested or stored at […]. For digestion, explants were transferred in digestion buffer composed of 1 mg/mL proteinase K in Tris/Ethylene diamine tetra-acetic acid (EDTA) buffer (pH 7.6) containing 18.5 μg/mL iodoacetamide and 1 μg/mL pepstatin A) for 16-72 h at 56° C. After complete digestion the GAG content was spectrophotometrically determined with 1,9-dimethylmethylene blue chloride staining in the phosphate buffer with ethylene diamine tetra-acetic acid buffer (14.2 g/L Na2HPO4 and 3.72 g/L Na2EDTA, pH 6.5) using an Infinite M1000 Pro microplate reader (Tecan) at an absorbance of 520 nm with chondroitin sulfate as a standard. Amount of total DNA in explants was determined by a CyQuant DNA Kit (Molecular Probes by Life Technology) using Qubit 1.0 fluorometer (Invitrogen).
Cultured explants were first digested in testicular hyaluronidase (0.05% in 50 mM HEPES) for 2 hours at 37° C. 0.5M glacial acetic acid was added to digestion solution to maximize the collagen swelling and provide best pepsin access. Pepsin (250 μg/ml) was then used to further digest the pellets in combination with rotation and occasional gentle vortexing at 4° C. for 18-24 hours. Cold tris base and NaOH were added to the digestion solution to neutralize the acetic acid. Digestion solution was vigorously vortexed immediately, and subsequently rotated at 4° C. overnight to maximize collagen solubility. Tubes were centrifuged to separate undigested tissue and supernatant. Any undigested tissue was subjected to the digestion process again. All supernatants were combined for ELISA. Concentration of collagen II in the supernatant was measured by Type I/II Collagen Detection Kit (Chondrex, Inc, Redmond, Wash.), according to manufacturer's instruction and normalized either to DNA content or wet weight of the explants determined prior to experimentation.

pSTAT3 and MYC [2] = assay: Western blot of pSTAT3 and MYC in human fetal articular chondrocytes; type: cell-based; conditions: 72 hours
Description: Moreover, LIFR expression is localized to chondrocytes in the superficial zone of articular cartilage throughout ontogeny. In contrast, LIF expression is strongest during fetal development and then diminishes over time (Table S1). […] LIF signals through a heterodimeric receptor comprised of LIFR and gp130 (IL6RST); upon binding extracellular ligand, both receptors are phosphorylated and recruit members of the JAK family which in turn phosphorylate STAT3 (pSTAT3). pSTAT3 then enters the nucleus to act as a transcriptional regulator. […] We first performed ELISA on human fetal and adult synovial fluid to determine if LIF protein levels change over time. […] Western blot analysis of the downstream effectors of LIF signaling, pSTAT3 and MYC, further supported reduced levels of LIF signaling in adult articular cartilage (FIG. 26A). We then confirmed that adolescent and adult articular chondrocytes in the superficial zone express both receptors required for LIF signaling (FIG. 33) and that these cells are the most anabolic of adult chondrocytes (FIGS. 34A-34B). Because STAT3 and MYC can respond to a variety of stimuli, we next wanted to determine if the increased levels of pSTAT3 and MYC in fetal cells were a direct result of increased LIF/LIFR signaling.
as §1

[3] = test system: MAPK, AKT, NF-κB pathways; assay: Western blot of MAPK, AKT and NF-κB signaling in adult pig articular chondrocytes; type: cell-based; conditions: 24 hours
Procedure: FIGS. 30A-30B. […] (FIG. 30A) Adult pig articular chondrocytes were cultured for 24 hours with the indicated cytokines or RCGD 423 and the levels of pSTAT3 and MYC were measured with respect to histone H3. Representative data for other proteins in the MAPK (p38 and MEK1/2), AKT (phospho-AKT; pAKT) or NF-KB (NF-KB p65) are also shown. (FIG. 30B) Levels of transcription of genes indicative of a catabolic response were determined via quantitative PCR in adult pig articular chondrocytes treated with OSM, IL-6, TNF-α, LIF or RCGD 423. Data are represented at mean±SD.
Cartilage degeneration is generally considered a feed-forward process, in which small losses of chondrocytes result in microenvironmental changes including induction of an inflammatory response and other pro-catabolic events (Hunziker, 2002). In turn, these alterations in the joint milieu promote production of matrix degrading proteins including MMPs (collagenases) and proteins of the ADAMTS family (aggrecanases). LIF has been implicated in promoting this cycle of matrix destruction during the pathogenesis of osteoarthritis (Hui et al., 2000; Lotz et al., 1992), although its role in this process has been controversial. In order to better understand the mechanism of action of LIF, RCGD 423 and known pro-inflammatory cytokines in the promotion of degeneration, we stimulated adult pig articular chondrocytes with these molecules and quantitated the levels of activated downstream proteins that mediate the cellular signaling response (FIG. 30A).
as §1

Question: Which “ability of both LIF and RCGD 423 to induce increases in pSTAT3 and MYC” value (pSTAT3 and MYC [1]) does the source give for `Cl.O=C(NNc1nc2cc(F)ccc2n2cccc12)c1cnccn1` [gp130 inhibitor, reference compound] here?
Answer: The value was “greatly reduced”.

Question: How did the “ability of both LIF and RCGD 423 to induce increases in pSTAT3 and MYC” value (pSTAT3 and MYC [1]) turn out when `C[C@@H]1CCN(C(=O)CC#N)C[C@@H]1N(C)c1ncnc2[nH]ccc12` [JAK inhibitor, reference compound] was run?
Answer: Its value is “greatly reduced”.

Question: With TGF-beta 1: morphogen as the molecule, how does the “expansion of cartilage tissue in explants” value (shortened to “expansion”) (cartilage explants) read?
Answer: Its value is “little or no effect”.

B1: GDF5: BMPR1B ligand (protein, UniProt P43026 382-501, looked up)
Growth/differentiation factor …: APLATRQGKRPSKNLKARCSRKALHVNFKDMGWDDWIIAPLEYEAFHCEGLCEFPLRSHLEPTNHAVIQTLMNSMDPESTPPTCCVPTRLSPISILFIDSANNVVYKQYEDMVVESCGCR
Question: With B1 as the molecule, how does the “expansion” value (cartilage explants) read?
Answer: Its value is “little or no effect”.

B2: IL-la: inflammatory cytokine (protein, UniProt P01583 113-271, looked up)
Interleukin-1 alpha: SAPFSFLSNVKYNFMRIIKYEFILNDALNQSIIRANDQYLTAAALHNLDEAVKFDMGAYKSSKDDAKITVILRISKTQLYVTAQDEDQPVLLKEMPEIPKTITGSETNLLFFWETHGTKNYFTSVAHPNLFIATKQDYWVCLAGGPPSITDFQILENQA
Question: What does the source list for B2?
Answer: levels of MYC (pSTAT3 and MYC [1]): inhibit accumulation; levels of pSTAT3 (pSTAT3 and MYC [1]): inhibit accumulation

B3: sLIFR: soluble LIFR, which binds and sequesters LIF (protein, UniProt P42702 45-833, looked up)
extracellular domain: QKKGAPHDLKCVTNNLQVWNCSWKAPSGTGRGTDYEVCIENRSRSCYQLEKTSIKIPALSHGDYEITINSLHDFGSSTSKFTLNEQNVSLIPDTPEILNLSADFSTSTLYLKWNDRGSVFPHRSNVIWEIKVLRKESMELVKLVTHNTTLNGKDTLHHWSWASDMPLECAIHFVEIRCYIDNLHFSGLEEWSDWSPVKNISWIPDSQTKVFPQDKVILVGSDITFCCVSQEKVLSALIGHTNCPLIHLDGENVAIKIRNISVSASSGTNVVFTTEDNIFGTVIFAGYPPDTPQQLNCETHDLKEIICSWNPGRVTALVGPRATSYTLVESFSGKYVRLKRAEAPTNESYQLLFQMLPNQEIYNFTLNAHNPLGRSQSTILVNITEKVYPHTPTSFKVKDINSTAVKLSWHLPGNFAKINFLCEIEIKKSNSVQEQRNVTIKGVENSSYLVALDKLNPYTLYTFRIRCSTETFWKWSKWSNKKQHLTTEASPSKGPDTWREWSSDGKNLIIYWKPLPINEANGKILSYNVSCSSDEETQSLSEIPDPQHKAEIRLDKNDYIISVVAKNSVGSSPPSKIASMEIPNDDLKIEQVVGMGKGILLTWHYDPNMTCDYVIKWCNSSRSEPCLMDWRKVPSNSTETVIESDEFRPGIRYNFFLYGCRNQGYQLLRSMIGYIEELAPIVAPNFTVEDTSADSILVKWEDIPVEELRGFLRGYLFYFGKGERDTSKMRVLESGRSDIKVKNITDISQKTLRIADLQGKTSYHLVLRAYTDGGVGPEKSMYVVTKENS
modifications: extracellular domain
Question: Which results are given for B3?
Answer: levels of MYC (pSTAT3 and MYC [2]): substantially reduced; levels of pSTAT3 (pSTAT3 and MYC [2]): substantially reduced; levels of MYC (pSTAT3 and MYC [2]; listed as LIFR): reduces; levels of pSTAT3 (pSTAT3 and MYC [2]; listed as LIFR): reduces; levels of MYC (pSTAT3 and MYC [2]; listed as soluble LIF receptor): reduces; levels of pSTAT3 (pSTAT3 and MYC [2]; listed as soluble LIF receptor): reduces

B4: BMP4: driver of chondrocyte hypertrophy (protein, UniProt P12644 293-408, looked up)
Bone morphogenetic protein 4: SPKHHSQRARKKNKNCRRHSLYVDFSDVGWNDWIVAPPGYQAFYCHGDCPFPLADHLNSTNHAIVQTLVNSVNSSIPKACCVPTELSAISMLYLDEYDKVVLKNYQEMVVEGCGCR
Question: Which “expansion” value (cartilage explants) does the source give for B4 here?
Answer: Its value is “little or no effect”.

B5: OSM: IL-6 family cytokine oncostatin M (protein, UniProt P13725 26-221, looked up)
Oncostatin-M: AAIGSCSKEYRVLLGQLQKQTDLMQDTSRLLDPYIRIQGLDVPKLREHCRERPGAFPSEETLRGLGRRGFLQTLNATLGCVLHRLADLEQRLPKAQDLERSGLNIEDLEKLQMARPNILGLRNNIYCMAQLLDNSDTAEPTKAGRGASQPPTPTPASDAFQRKLEGCRFLHGYHRFMHSVGRVFSKWGESPNRSRR
Question: Which “levels of MYC” value (pSTAT3 and MYC [1]) does the source give for B5 here?
Answer: The value was “does not elicit any upregulation”.

Question: And the “levels of pSTAT3” value (pSTAT3 and MYC [1])?
Answer: Its value is “does not elicit any upregulation”.

Question: What about the pro-inflammatory response [3] of the same molecule?
Answer: Its pro-inflammatory response is “strong pro-inflammatory response”.
